Target: the molecule itself
Experiment: cryo-EM structure; HK97 Prohead I particles with portal, purified from E. coli co-expressing genes 3 and 5; buffer 100 mM KCl, 20 mM potassium phosphate pH 7.5; icosahedral map 3.6 A, focused reconstructions of penton vertex (C5, 3.0 A) and portal vertex (no symmetry 3.6 A, C12 3.2 A)

B1: bacteriophage HK97 portal protein (natural protein, UniProt P49859 1-424, looked up)
chain: MEEPKYTIDLRTNNGWWARLKSWFVGGRLVTPNQGSQTGPVSAHGYLGDSSINDERILQISTVWRCVSLISTLTACLPLDVFETDQNDNRKKVDLSNPLARLLRYSPNQYMTAQEFREAMTMQLCFYGNAYALVDRNSAGDVISLLPLQSANMDVKLVGKKVVYRYQRDSEYADFSQKEIFHLKGFGFTGLVGLSPIAFACKSAGVAVAMEDQQRDFFANGAKSPQILSTGEKVLTEQQRSQVEENFKEIAGGPVKKRLWILEAGFSTSAIGVTPQDAEMMASRKFQVSELARFFGVPPHLVGDVEKSTSWGSGIEQQNLGFLQYTLQPYISRWENSIQRWLIPSKDVGRLHAEHNLDGLLRGDSASRAAFMKAMGESGLRTINEMRRTDNMPPLPGGDVAMRQAQYVPITDLGTNKEPRNNGA
notes: Portal protein of bacteriophage HK97, wild-type gene 3; 50 N-terminal residues are not visible in the density map and are missing from the model; Dodecamer at one vertex of Prohead I; also called gene 3 product; dodecameric portal complex; source: E. coli BL21 (DE3), plasmid pVPB expressing HK97 genes 3 and 5; purified within Prohead I particles (PEG precipitation, ultracentrifugation, glycerol …)
stoichiometry N: 12

Reference: PMC10275583, “A symmetry mismatch unraveled: How phage HK97 scaffold flexibly accommodates a 12-fold pore at a 5-fold viral capsid vertex” (Science Advances, 2023)
